This is an account of results in article PMC7933130 (Nature, 2021).

The data set deals with the molecule itself. Description: SEC-MALS. (In general: In gel filtration, larger molecules generally elute earlier.)

B1: human Na+-dependent citrate transporter NaCT (SLC13A5), wildtype (natural protein)
chain: not shown
modifications: one glycan unit connected to Asn562 (N-glycosylation site)
With B1, the “stoichiometry N” value amounted to 2.

The stoichiometry N is a count of units in the complex or per binding partner.
